Target: ASB7-Elongin B-Elongin C ternary complex (human), Q9H672
Experiment: ITC; peptide (0.8–4 mM) titrated into the ASB7 complex (39–156 µM); 16 °C; 20 mM Tris-HCl pH 7.5, 150 mM NaCl; MicroCal PEAQ-ITC

Sequence of ASB7-Elongin B-Elongin C ternary complex (human), Q9H672 (Q9H672 11-318, chain 1 of 3): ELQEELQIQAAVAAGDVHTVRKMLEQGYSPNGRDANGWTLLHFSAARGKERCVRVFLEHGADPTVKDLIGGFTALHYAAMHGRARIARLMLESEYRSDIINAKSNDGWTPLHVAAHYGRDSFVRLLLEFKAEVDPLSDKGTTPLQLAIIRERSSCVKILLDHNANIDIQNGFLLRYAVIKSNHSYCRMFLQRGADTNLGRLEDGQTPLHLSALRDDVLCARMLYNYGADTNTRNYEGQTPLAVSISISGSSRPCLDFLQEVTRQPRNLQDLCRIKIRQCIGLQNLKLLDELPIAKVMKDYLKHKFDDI
Sequence of ASB7-Elongin B-Elongin C ternary complex (human), Q9H672 (Q15370 1-104, chain 2 of 3, further chain): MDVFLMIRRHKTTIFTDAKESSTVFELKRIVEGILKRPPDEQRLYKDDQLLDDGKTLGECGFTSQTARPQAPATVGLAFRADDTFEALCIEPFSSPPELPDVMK
Sequence of ASB7-Elongin B-Elongin C ternary complex (human), Q9H672 (Q15369 17-112, chain 3 of 3, further chain): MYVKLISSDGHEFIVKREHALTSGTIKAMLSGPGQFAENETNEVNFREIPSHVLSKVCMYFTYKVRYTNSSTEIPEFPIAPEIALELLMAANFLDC

Row | fold decrease in binding affinity against the LZTS1-degron | Kd | Binder
1 | 6 fold |  | ELESLMKEQDLLETKLR (modifications not checked) [LZTS1 17-residue degron]
2 |  | 3.8 µM | ELEKAKQECQDLKGKLEKCCRH (modifications not checked) [CEP152-degron 23-residue peptide]

Reference: publication PMC11263391, “Molecular insights into degron recognition by CRL5^ASB7 ubiquitin ligase” (Nature Communications, 2024)
